# Data published in article PMC9352680, “A comprehensive thermodynamic model for RNA binding by the Saccharomyces cerevisiae Pumilio protein PUF4”.
# Substitutions are numbered along the chain they refer to. Names and notes keep the numbering of the source.
# T1: PUF4 RNA-binding domain (Saccharomyces cerevisiae, UniProt P25339 537-888)
# T1 sequence: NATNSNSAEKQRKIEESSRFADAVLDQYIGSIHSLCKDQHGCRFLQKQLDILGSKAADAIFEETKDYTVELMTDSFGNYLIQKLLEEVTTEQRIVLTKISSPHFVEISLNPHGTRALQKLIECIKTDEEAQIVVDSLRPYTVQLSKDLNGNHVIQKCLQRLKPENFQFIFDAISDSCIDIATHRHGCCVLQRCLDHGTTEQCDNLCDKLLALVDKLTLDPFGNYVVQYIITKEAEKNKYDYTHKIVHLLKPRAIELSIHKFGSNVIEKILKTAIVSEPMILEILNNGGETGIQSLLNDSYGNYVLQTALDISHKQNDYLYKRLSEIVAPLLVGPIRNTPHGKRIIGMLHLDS
# B1: Ib_S1_P5E.1_K5.1_C5.1_H5.1_A5.1_[T5A]_F5.1_[T8C]_T5.1 (ssRNA)
# RNA: UCUCUUUGUAAUACUAUCUCUU
# B2: Ic_S1_P5E.1_K5.1_C5.1_H5.1_A5.1_[T5C]_F5.1_[T8A]_T5.1 (ssRNA)
# RNA: UCUCUUUGUACUAAUAUCUCUU
# B3: Ib_S1_P5E.1_K5.1_C5.1_H5.1_A5.1_[T6C]_F5.1_[T8G]_T5.1 (ssRNA)
# RNA: UCUCUUUGUAUCAGUAUCUCUU
# B4: Ib_S1_P5E.1_K5.1_C5.1_H5.1_A5.1_[T5A]_F5.1_[T8A]_T5.1 (ssRNA)
# RNA: UCUCUUUGUAAUAAUAUCUCUU
# B5: Id_ii_S2_P5E.2_K5.1_C5.2_[C-2G]_[T-1C]_H5.1_A5.1_F5.1_T5.2_[T11A]_[A12C] (ssRNA)
# RNA: UUUGAUUAAUAUGAUAUCGUUCUUUCUGCUGUAUUAUUAACUUCUUUCUCGAUAUCAUAUUAAUCUUU
# B6: Id_ii_S2_P5E.2_K5.1_C5.2_[C-2G]_H5.1_A5.1_F5.1_T5.2_[A12T] (ssRNA)
# RNA: B5 RNA with C29U, A40U, C41U
# B7: Id_ii_S2_P5E.2_K5.1_C5.2_[C-2G]_H5.1_A5.1_F5.1_T5.2_[A12C] (ssRNA)
# RNA: B5 RNA with C29U, A40U
# B8: Id_ii_S2_P5E.2_K5.1_C5.2_[C-2T]_[T-1C]_H5.1_A5.1_F5.1_T5.2_[A12G] (ssRNA)
# RNA: B5 RNA with G28U, A40U, C41G
# B9: Id_ii_S2_P5E.2_K5.1_C5.2_[C-2T]_[T-1A]_H5.1_A5.1_F5.1_T5.2_[T11G]_[A12T] (ssRNA)
# RNA: B5 RNA with G28U, C29A, A40G, C41U
# B10: Id_ii_S2_P5E.2_K5.1_C5.2_[C-2G]_[T-1C]_H5.1_A5.1_F5.1_T5.2_[T11A] (ssRNA)
# RNA: B5 RNA with C41A
# B11: Id_ii_S2_P5E.2_K5.1_C5.2_[C-2G]_H5.1_A5.1_F5.1_T5.2_[T11A]_[A12T] (ssRNA)
# RNA: B5 RNA with C29U, C41U
# B12: Id_ii_S2_P5E.2_K5.1_C5.2_[C-2G]_[T-1C]_H5.1_A5.1_F5.1_T5.2_[A12C] (ssRNA)
# RNA: B5 RNA with A40U
# B13: Id_ii_S2_P5E.2_K5.1_C5.2_[C-2G]_[T-1C]_H5.1_A5.1_F5.1_T5.2_[A12T] (ssRNA)
# RNA: B5 RNA with A40U, C41U
# B14: Id_ii_S2_P5E.2_K5.1_C5.2_[C-2T]_[T-1C]_H5.1_A5.1_F5.1_T5.2_[T11A]_[A12G] (ssRNA)
# RNA: B5 RNA with G28U, C41G
# B15: Id_ii_S2_P5E.2_K5.1_C5.2_[C-2T]_[T-1G]_H5.1_A5.1_F5.1_T5.2_[T11A]_[A12T] (ssRNA)
# RNA: B5 RNA with G28U, C29G, C41U
# B16: Id_ii_S2_P5E.2_K5.1_C5.2_[C-2T]_[T-1G]_H5.1_A5.1_F5.1_T5.2_[A12C] (ssRNA)
# RNA: B5 RNA with G28U, C29G, A40U
# B17: Id_ii_S2_P5E.2_K5.1_C5.2_[C-2T]_[T-1C]_H5.1_A5.1_F5.1_T5.2_[T11A]_[A12C] (ssRNA)
# RNA: B5 RNA with G28U
# B18: Id_ii_S2_P5E.2_K5.1_C5.2_[C-2T]_[T-1C]_H5.1_A5.1_F5.1_T5.2_[A12T] (ssRNA)
# RNA: B5 RNA with G28U, A40U, C41U
# B19: Id_ii_S2_P5E.2_K5.1_C5.2_[C-2T]_[T-1G]_H5.1_A5.1_F5.1_T5.2_[T11G]_[A12C] (ssRNA)
# RNA: B5 RNA with G28U, C29G, A40G
# B20: Id_ii_S2_P5E.2_K5.1_C5.2_[C-2G]_[T-1C]_H5.1_A5.1_F5.1_T5.2_[T11A]_[A12T] (ssRNA)
# RNA: B5 RNA with C41U
# B21: Id_ii_S2_P5E.2_K5.1_C5.2_[C-2T]_[T-1G]_H5.1_A5.1_F5.1_T5.2_[A12T] (ssRNA)
# RNA: B5 RNA with G28U, C29G, A40U, C41U
# B22: Id_ii_S2_P5E.2_K5.1_C5.2_[C-2T]_[T-1G]_H5.1_A5.1_F5.1_T5.2_[T11A] (ssRNA)
# RNA: B5 RNA with G28U, C29G, C41A
# B23: Id_ii_S2_P5E.2_K5.1_C5.2_[C-2T]_[T-1C]_H5.1_A5.1_F5.1_T5.2_[T11A] (ssRNA)
# RNA: B5 RNA with G28U, C41A
# B24: Id_ii_S2_P5E.2_K5.1_C5.2_[C-2T]_[T-1A]_H5.1_A5.1_F5.1_T5.2_[T11A]_[A12C] (ssRNA)
# RNA: B5 RNA with G28U, C29A
# B25: Id_ii_S2_P5E.2_K5.1_C5.2_[C-2G]_H5.1_A5.1_F5.1_T5.2_[T11G]_[A12T] (ssRNA)
# RNA: B5 RNA with C29U, A40G, C41U
# B26: Id_ii_S2_P5E.2_K5.1_C5.2_[C-2T]_[T-1C]_H5.1_A5.1_F5.1_T5.2_[A12C] (ssRNA)
# RNA: B5 RNA with G28U, A40U
# B27: Id_ii_S2_P4E.4_K4.3_C4.2_[T-1G]_H4.3_A4.1_F4.1_T4.2_[G10T]_[T11C] (ssRNA)
# RNA: UUUGAUUAAUAUGAUAUCGUUCUUUCUCGACACUAUUAUCUUCUUUCUCGAUAUCAUAUUAAUCUUU
# B28: Id_ii_S2_P4E.4_K4.3_C4.2_[T-1A]_H4.3_A4.1_F4.1_T4.2_[G10C] (ssRNA)
# RNA: B27 RNA with G29A, U39C, C40U
# B29: Id_ii_S2_P4E.4_K4.3_C4.2_[T-1G]_H4.3_A4.1_F4.1_T4.2_[G10A]_[T11A] (ssRNA)
# RNA: B27 RNA with U39A, C40A
# B30: Id_ii_S2_P4E.4_K4.3_C4.2_[T-1C]_H4.3_A4.1_F4.1_T4.2_[G10A]_[T11A] (ssRNA)
# RNA: B27 RNA with G29C, U39A, C40A
# B31: Id_ii_S2_P4E.4_K4.3_C4.2_[T-1A]_H4.3_A4.1_F4.1_T4.2_[G10T]_[T11A] (ssRNA)
# RNA: B27 RNA with G29A, C40A
# B32: Id_ii_S2_P4E.4_K4.3_C4.2_[T-1A]_H4.3_A4.1_F4.1_T4.2_[G10A]_[T11C] (ssRNA)
# RNA: B27 RNA with G29A, U39A
# B33: Id_ii_S2_P4E.4_K4.3_C4.2_[T-1C]_H4.3_A4.1_F4.1_T4.2_[G10A] (ssRNA)
# RNA: B27 RNA with G29C, U39A, C40U
# B34: Id_ii_S2_P4E.4_K4.3_C4.2_[T-1C]_H4.3_A4.1_F4.1_T4.2_[G10C]_[T11C] (ssRNA)
# RNA: B27 RNA with G29C, U39C
# B35: Id_ii_S2_P4E.4_K4.3_C4.2_[T-1G]_H4.3_A4.1_F4.1_T4.2_[G10T] (ssRNA)
# RNA: B27 RNA with C40U
# B36: Id_ii_S2_P4E.4_K4.3_C4.2_[T-1A]_H4.3_A4.1_F4.1_T4.2_[G10C]_[T11C] (ssRNA)
# RNA: B27 RNA with G29A, U39C
# B37: Id_ii_S2_P4E.4_K4.3_C4.2_H4.3_A4.1_F4.1_T4.2_[G10T]_[T11A] (ssRNA)
# RNA: B27 RNA with G29U, C40A
# B38: Id_ii_S2_P4E.4_K4.3_C4.2_[T-1C]_H4.3_A4.1_F4.1_T4.2_[G10T]_[T11A] (ssRNA)
# RNA: B27 RNA with G29C, C40A
# B39: Id_ii_S2_P4E.4_K4.3_C4.2_H4.3_A4.1_F4.1_T4.2_[G10C]_[T11C] (ssRNA)
# RNA: B27 RNA with G29U, U39C
# B40: Id_ii_S2_P4E.4_K4.3_C4.2_[T-1G]_H4.3_A4.1_F4.1_T4.2_[G10A] (ssRNA)
# RNA: B27 RNA with U39A, C40U
# B41: Id_ii_S2_P4E.4_K4.3_C4.2_H4.3_A4.1_F4.1_T4.2_[G10C]_[T11A] (ssRNA)
# RNA: B27 RNA with G29U, U39C, C40A
# B42: Id_ii_S2_P4E.4_K4.3_C4.2_H4.3_A4.1_F4.1_T4.2_[G10C]_[T11G] (ssRNA)
# RNA: B27 RNA with G29U, U39C, C40G
# B43: Id_ii_S2_P4E.4_K4.3_C4.2_[T-1C]_H4.3_A4.1_F4.1_T4.2_[G10T] (ssRNA)
# RNA: B27 RNA with G29C, C40U
# B44: Id_ii_S2_P4E.4_K4.3_C4.2_[T-1C]_H4.3_A4.1_F4.1_T4.2 (ssRNA)
# RNA: B27 RNA with G29C, U39G, C40U
# B45: Id_ii_S2_P4E.4_K4.3_C4.2_H4.3_A4.1_F4.1_T4.2 (ssRNA)
# RNA: B27 RNA with G29U, U39G, C40U
# B46: Id_ii_S2_P4E.4_K4.3_C4.2_[T-1A]_H4.3_A4.1_F4.1_T4.2_[G10C]_[T11A] (ssRNA)
# RNA: B27 RNA with G29A, U39C, C40A
# B47: Id_ii_S2_P4E.4_K4.3_C4.2_[T-1A]_H4.3_A4.1_F4.1_T4.2_[G10A] (ssRNA)
# RNA: B27 RNA with G29A, U39A, C40U
# B48: Id_ii_S2_P4E.4_K4.3_C4.2_H4.3_A4.1_F4.1_T4.2_[G10A] (ssRNA)
# RNA: B27 RNA with G29U, U39A, C40U
# B49: Id_ii_S2_P4E.4_K4.3_C4.2_[T-1A]_H4.3_A4.1_F4.1_T4.2 (ssRNA)
# RNA: B27 RNA with G29A, U39G, C40U
# B50: Id_ii_S2_P4E.4_K4.3_C4.2_[T-1A]_H4.3_A4.1_F4.1_T4.2_[T11C] (ssRNA)
# RNA: B27 RNA with G29A, U39G
# B51: Id_ii_S2_P4E.4_K4.3_C4.2_H4.3_A4.1_F4.1_T4.2_[T11C] (ssRNA)
# RNA: B27 RNA with G29U, U39G
# B52: Id_ii_S2_P4E.4_K4.3_C4.2_H4.3_A4.1_F4.1_T4.2_[G10T] (ssRNA)
# RNA: B27 RNA with G29U, C40U
# B53: Id_ii_S2_P4E.4_K4.3_C4.2_[T-1G]_H4.3_A4.1_F4.1_T4.2_[G10A]_[T11C] (ssRNA)
# RNA: B27 RNA with U39A
# Target: T1, PUF4 RNA-binding domain
# Assay: Mg; RNA-MaP; 20 mM Na-HEPES pH 7.4, 30 mM KOAc, 0.75 mM MgCl2, 0.1% Tween-20, 5% glycerol, 0.1 mg/mL BSA, 2 mM DTT; 25 C; 0.0125-409.6 nM protein
# Conditions: tags: N-His6-TEV cleaved; C-SNAP kept, Cy3B-labelled; label: tethered on chip by stalled RNA polymerase
row,Binder,Kd
1,B1,10.3 nM
2,B2,12.5 nM
3,B3,27.9 nM
4,B4,17.8 nM
5,B5,25.4 nM
6,B6,2.47 nM
7,B7,18.8 nM
8,B8,3.04 nM
9,B9,4.78 nM
10,B10,7.06 nM
11,B11,3.86 nM
12,B12,11.2 nM
13,B13,3.07 nM
14,B14,51 nM
15,B15,1.41 nM
16,B16,1.84 nM
17,B17,4.08 nM
18,B18,1.5 nM
19,B19,2.9 nM
20,B20,3.35 nM
21,B21,1.42 nM
22,B22,1.72 nM
23,B23,4.24 nM
24,B24,8.24 nM
25,B25,3.05 nM
26,B26,2.98 nM
27,B27,> 2300 nM

row,Binder,Kd
1,B28,> 2300 nM
2,B29,> 2300 nM
3,B30,> 2300 nM
4,B31,748 nM
5,B32,2240 nM
6,B33,> 2300 nM
7,B34,> 2300 nM
8,B35,> 2300 nM
9,B36,> 2300 nM
10,B37,459 nM
11,B38,594 nM
12,B39,563 nM
13,B40,> 2300 nM
14,B41,471 nM
15,B42,> 2300 nM
16,B43,2050 nM
17,B44,> 2300 nM
18,B45,> 2300 nM
19,B46,> 2300 nM
20,B47,> 2300 nM
21,B48,498 nM
22,B49,> 2300 nM
23,B50,> 2300 nM
24,B51,1620 nM
25,B52,528 nM
26,B53,> 2300 nM
